Laboratory results taken from US12227551B2, “Membrane bound IL12 compositions and methods for tunable regulation” (Obsidian Therapeutics, Inc., priority 2018, dated 2025).

What was measured:
[1] = Plasma IL12 and IFNgamma cytokine levels, Nalm6-Luc NSG model (Example 9; Table 31); type: in vivo, NSG mice; settings: day 14 post T cell transfer
Procedure: (§1) The study was designed to determine if membrane bound IL12 (mbIL12) expressed on CAR-T cells via a CD8 TM domain and CD8 Hinge Region promotes CAR T cell expansion in cis, promotes non-CAR-T cell expansion in trans, and/or increases in vivo CAR T cell efficacy against CD19+ Nalm6 tumors. To test in vivo anti-tumor activity, experiments were performed in NSG mice. Nalm6 cells were transfected with Redifect Red-Fluc (Perkin Elmer) under selection using Puromycin for ˜2 months to generate a line that stably expresses the luciferase reporter; thereafter named Nalm6-Luc. Ten days before tumor implantation, Nalm6-Luc cells were thawed and cultured in puromycin-containing media. On day 0, cells were counted, resuspended in PBS and injected into NSG mice via tail vein. On day 6, mice were imaged for bioluminescent intensity (BLI) and sorted into groups based on their tumor size ensuring that all groups had the same sized tumors. Human T cells were transduced with one of the following constructs as shown in the study design in Table 27:
Thus, anti-tumor efficacy (Table 28) appears to correlate with plasma cytokine levels.

CD19+ Nalm6 tumors = experiment: Kaplan-Meier animal survival (Example 10; Table 35); type: in vivo, NSG mice
Procedure: as §1, with “To” for “The study was designed to determine if membrane bound IL12 (mbIL12) expressed on CAR-T cells via a CD8 TM domain and CD8 Hinge Region promotes CAR T cell expansion in cis, promotes non-CAR-T cell expansion in trans, and/or increases in vivo CAR T cell efficacy against CD19+ Nalm6 tumors. To”, “ensure” for “ensuring”, “33:” for “27:”
Percent survival was also measured for each group during the course of the experiment and the following numbers were obtained as shown in Table 35: […]

[2] = system: phospho-STAT4 in GFP+ T cells; experiment: Transactivation: phospho-STAT4 in GFP+ CAR-negative T cells after 1 hour co-culture with CAR-mbIL12 T cells, flow cytometry (Example 6; Table 20); type: cell-based, human
Procedure: Membrane bound IL12 (mbIL12) was expressed in tandem with a CD19-CAR and tested in primary human T cells. On day 0, primary human T cells were stimulated with Dynabeads (T-expander CD3/CD28) at a 3:1 bead:cell ratio in media containing 10% fetal bovine serum (FBS). The next day, lentivirus with mbIL12 in tandem with a CD19-CAR construct was added in the presence of reduced serum (5% FBS). After 7 days of T cell expansion, increasing numbers of CAR+ T cells were cocultured with 10,000 GFP+, CAR-negative T cells. At the end of 1 hour of co-culture, the phospho-STAT4 levels within the GFP+ T cells were quantitated by flow cytometry using reagents and methods from BD. To determine the relative amount of IL12 activity that had accumulated in the T cell supernatants during the hour-long co-culture, cell supernatants from the co-culture were transferred to a new plate of GFP+ T cells and incubated for 1 hour. Phospho-STAT4 levels were measured in the GFP+ T cells incubated with the supernatants from the original co-culture. The transactivation ([…] geometric mean fluorescence (MFI) on GFP+ cells in co-culture) and the bystander effect (pSTAT4 geometric MFI on GFP+ T cells in 1 hour supernatants) for a CAR-IL12+:GFP+ ratio of 64 are shown in Table 20.
The transactivation (pSTAT4 geometric mean fluorescence (MFI) on GFP+ cells in co-culture) and the bystander effect (pSTAT4 geometric MFI on GFP+ T cells in 1 hour supernatants) for the constructs at different ratios are summarized below. For OT-001407, when (a) the CAR-IL12+:GFP+ ratio was 32, the transactivation was 1711 and the bystander effect was −1680, (b) the CAR-IL12+:GFP+ ratio was 16, the transactivation was 1768 and the bystander effect was −1632, (c) the CAR-IL12+:GFP+ ratio was 8, the transactivation was 1433 and the bystander effect was −1603, (d) the CAR-IL12+:GFP+ ratio was 4, the transactivation was 1195 and the bystander effect was −1860, and (e) the CAR-IL12+:GFP+ ratio was 2, the transactivation was 1101 and the bystander effect was −1800. For OT-001356, when (a) the CAR-IL12+:GFP+ ratio was 73.9, the transactivation was 6452 and the bystander effect was −2617, (b) the CAR-IL12+:GFP+ ratio was 37, the transactivation was 6935 and the bystander effect was −1404, (c) the CAR-IL12+:GFP+ ratio was 18.5, the transactivation was 6417 and the bystander effect was −226, (d) the CAR-IL12+:GFP+ ratio was 9.2, the transactivation was 5568 and the bystander effect was −86, (e) the CAR-IL12+:GFP+ ratio was 4.6, the transactivation was 4374 and the bystander effect was −518, and (f) the CAR-IL12+:GFP+ ratio was 2.3, the transactivation was 2839 and the bystander effect was −1093. For OT-001895, when (a) the CAR-IL12+:GFP+ ratio was 34.1, the transactivation was 7699 and the bystander effect was −3724, (b) the CAR-IL12+:GFP+ ratio was 17.1, the transactivation was 7718 and the bystander effect was −2996, (c) the CAR-IL12+:GFP+ ratio was 8.5, the transactivation was 8200 and the bystander effect was −1178, (d) the CAR-IL12+:GFP+ ratio was 4.3, the transactivation was 7172 and the bystander effect was −277, (e) the CAR-IL12+:GFP+ ratio was 2.1, the transactivation was 6095 and the bystander effect was −238, and (f) the CAR-IL12+:GFP+ ratio was 1.1, the transactivation was 4498 and the bystander effect was −136. For OT-002011, when (a) the CAR-IL12+:GFP+ ratio was 75.8, the transactivation was 8086 and the bystander effect was −3531, (b) the CAR-IL12+:GFP+ ratio was 37.9, the transactivation was 8031 and the bystander effect was −2884, (c) the CAR-IL12+:GFP+ ratio was 18.9, the transactivation was 8324 and the bystander effect was −1376, (d) the CAR-IL12+:GFP+ ratio was 9.5, the transactivation was 7765 and the bystander effect was −1133, (e) the CAR-IL12+:GFP+ ratio was 4.7, the transactivation was 6682 and the bystander effect was −566, and (f) the CAR-IL12+:GFP+ ratio was 2.4, the transactivation was 5190 and the bystander effect was −642. […]

Nalm-6 cells = experiment: 48 hour cytotoxicity assay, T cells co-cultured with Nalm-6 NucRed cells, Incucyte (Example 7; Table 21); type: cell-based
Procedure: For cytotoxicity assays, T cells were thawed and co-cultured with Nalm-6 cells (stably expressing NucRed®) at different T cells to Nalm-6 cell culture ratios. Target cell viability was determined by measuring cellular fluorescence over time using an Incucyte assay and the results are shown in Table 21.

B1: OT-001356: CD19 CAR; stop; IRES; secreted IL12 (p40 23-328; (G4S)3; p35 57-253); nucleic acid SEQ ID NO: 482 (protein)
chain: IWELKKDVYVVELDWYPDAPGEMVVLTCDTPEEDGITWTLDQSSEVLGSGKTLTIQVKEFGDAGQYTCHKGGEVLSHSLLLLHKKEDGIWSTDILKDQKEPKNKTFLRCEAKNYSGRFTCWWLTTISTDLTFSVKSSRGSSDPQGVTCGAATLSAERVRGDNKEYEYSVECQEDSACPAAEESLPIEVMVDAVHKLKYENYTSSFFIRDIIKPDPPKNLQLKPLKNSRQVEVSWEYPDTWSTPHSYFSLTFCVQVQGKSKREKKDRVFTDKTSATVICRKNASISVRAQDRYYSSSWSEWASVPCSGGGGSGGGGSGGGGSRNLPVATPDPGMFPCLHHSQNLLRAVSNMLQKARQTLEFYPCTSEEIDHEDITKDKTSTVEACLPLELTKNESCLNSRETSFITNGSCLASRKTSFMMALCLSSIYEDLKMYQVEFKTMNAKLLMDPKRQIFLDQNMLAVIDELMQALNFNSETVPQKSSLEEPDFYKTKIKLCILLHAFRIRAVTIDRVMSYLNASGS
Day 14 Plasma IFNgamma Levels ([1]; cell dose 0.3 ×10e6): 17,565 pg/mL
Day 14 Plasma IL 12 Levels ([1]; cell dose 0.3 ×10e6): 1,455 pg/mL
Day 14 Plasma IFNgamma Levels ([1]; cell dose 1 ×10e6): 22,154 pg/mL
Day 14 Plasma IL 12 Levels ([1]; cell dose 1 ×10e6): 3,853 pg/mL
Kaplan-Meier Analysis of Animal Survival (percent survival) (CD19+ Nalm6 tumors; day 0 post tumor implant): 100%
Kaplan-Meier Analysis of Animal Survival (percent survival) (CD19+ Nalm6 tumors; day 41 post tumor implant): 100%
transactivation (pSTAT4 geometric MFI on GFP+ cells in co-culture) ([2]; CAR-IL12+:GFP+ ratio 2.3): 2839
transactivation (pSTAT4 geometric MFI on GFP+ cells in co-culture) ([2]; CAR-IL12+:GFP+ ratio 4.6): 4374
transactivation (pSTAT4 geometric MFI on GFP+ cells in co-culture) ([2]; CAR-IL12+:GFP+ ratio 9.2): 5568
transactivation (pSTAT4 geometric MFI on GFP+ cells in co-culture) ([2]; CAR-IL12+:GFP+ ratio 18.5): 6417
transactivation (pSTAT4 geometric MFI on GFP+ cells in co-culture) ([2]; CAR-IL12+:GFP+ ratio 37): 6935
transactivation (pSTAT4 geometric MFI on GFP+ cells in co-culture) ([2]; CAR-IL12+:GFP+ ratio 73.9): 6452
Transactivation ([2]; CAR-IL12+:GFP+ ratio of 64, pSTAT4 geometric MFI on GFP+ cells, 1 hour co-culture): 6452
Average Total Nalm6-NucRed Area after 48 hour at E:T ratio of 3:1 (Nalm-6 cells; E:T 3:1, 48 hour): 33,079
Average Total Nalm6-NucRed Area after 48 hour at E:T ratio of 10:1 (Nalm-6 cells; E:T 10:1, 48 hour): 32,236
